Data taken from patent US20100047245A1.

Experiments:
[1] = target: recombinant purified human IL-12 p70 (human) (UniProt P29459); experiment: cell-based or functional assay
[2] = target: recombinant purified human IL-12 p70 (human) (UniProt P29459); experiment: SPR (Biacore) per Example 1.1.B, recombinant human IL-12p70
[3] = target: recombinant purified human IL-12 p70 (human) (UniProt P29459); experiment: competition ELISA on plate-coated human IL-12; competes 0.8 µg/ml biotinylated 8E1; Expt. 2
[4] = target: recombinant purified human IL-12 p70 (human) (UniProt P29459); experiment: SPR (Biacore) per Example 1.1.B; antigen not restated, taken as human IL-12 p70
[5] = target: recombinant purified human IL-12 p70 (human) (UniProt P29459); experiment: competition ELISA on plate-coated human IL-12; competes 0.8 µg/ml biotinylated 8E1; Expt. 3
[6] = target: recombinant purified human IL-12 p70 (human) (UniProt P29459); experiment: competition ELISA on plate-coated human IL-12; competes 0.8 µg/ml biotinylated 8E1; Average
[7] = target: recombinant purified human IL-12 p70 (human) (UniProt P29459); experiment: competition ELISA on plate-coated human IL-12; competes 0.8 µg/ml biotinylated 8E1; Expt. 1
[8] = target: recombinant purified human IL-12 p70 (human) (UniProt P29459); experiment: SPR (Biacore 3000), mAb captured via goat anti-mouse IgG Fc, human IL-12 p70 in solution

recombinant purified human IL-12 p70 (human), sequence (chain, as listed by the source, form in doubt, chain 1 of 2): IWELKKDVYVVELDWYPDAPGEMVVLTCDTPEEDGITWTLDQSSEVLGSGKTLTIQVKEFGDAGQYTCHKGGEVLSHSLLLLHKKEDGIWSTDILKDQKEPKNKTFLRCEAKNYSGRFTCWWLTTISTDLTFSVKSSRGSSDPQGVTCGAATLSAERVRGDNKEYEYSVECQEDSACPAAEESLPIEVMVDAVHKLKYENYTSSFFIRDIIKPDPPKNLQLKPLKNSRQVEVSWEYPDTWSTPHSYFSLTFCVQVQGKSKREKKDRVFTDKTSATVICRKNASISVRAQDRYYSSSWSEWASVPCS
recombinant purified human IL-12 p70 (human), sequence (P29459 23-219, form in doubt, chain 2 of 2): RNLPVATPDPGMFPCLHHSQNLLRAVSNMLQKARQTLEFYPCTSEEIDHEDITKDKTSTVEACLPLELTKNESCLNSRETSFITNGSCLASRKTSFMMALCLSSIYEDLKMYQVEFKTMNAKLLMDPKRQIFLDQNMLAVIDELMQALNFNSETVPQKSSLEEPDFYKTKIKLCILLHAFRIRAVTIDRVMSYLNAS

| Av. IC50 (nM) Hu IL-12; PHA blast IFN-gamma induction assay [1] | Kd [2] | koff [2] | kon [2] | IC50 [3] | Kd [4] | koff [4] | kon [4] | IC50 [5] | IC50 [6] | IC50 [7] | Av. IC50(nM) huIL-12; PHA blast IFN-gamma induction assay [1] | Average IC50 (nM) Human IL-12; PHA blast IFN-gamma induction assay [1] | Kd [8] | koff [8] | kon [8] | Binder |
| --- | --- | --- | --- | --- | --- | --- | --- | --- | --- | --- | --- | --- | --- | --- | --- | --- |
| 2.8 nM | 1.7 nM | 0.00087 s⁻¹ | 520000 M⁻¹ s⁻¹ |  |  |  |  |  |  |  |  |  |  |  |  | 8E1.1 (antibody, human IgG1, kappa, L234A L235A, V domains shown) VH: EVQLVESGGGLVQPGGSLRLSCAASGFTFSDYGMVWVRQAPGKGLEWVGSISSGSSNIYYADTVKGRFTISRDDSKNSLYLQMNSLKTEDTAVYYCARNPYWGQGTTVTVSS VL: DIQMTQSPSSLSASVGDRVTITCKASQNVGTNVAWYQQKPEKAPKSLIYSASHRYSGVPSRFSGSGSGTDFTLTISSLQPEDFATYYCQQYNSYPLTFGGGTKVEIKR |
|  |  |  |  | 2.43 µg/mL | 0.046 nM | 8e-05 s⁻¹ | 1.7e+06 M⁻¹ s⁻¹ | 1.61 µg/mL | 2.1 µg/mL | 2.25 µg/mL |  |  |  |  |  | 8E1.6 (antibody, V domains shown) VH: EVQLVESGGGLVQPGGSLRLSCAASGFTFSDYGMVWVRQAPGKGLEWVASISSGSSNIYYADTVKGRFTISRDDAKNTLYLQMNSLRAEDTAVYYCARNPYWGQGTLVTVSS VL: DIQMTQSPSSLSASVGDRVTITCKASQNVGTNVAWYQQKPGKAPKGLIYSASHRYSGVPSRFSGSGSGTDFTLTISSLQPEDFATYYCQQYNSYPLTFGGGTKVEIKR |
|  |  |  |  |  | 0.75 nM | 0.00124 s⁻¹ | 1.6e+06 M⁻¹ s⁻¹ | 13.4 µg/mL |  |  | 8 nM |  |  |  |  | 8E1.5 (antibody, IgG1, V domains shown) VH: EVQLVESGGGLVQPGGSLRLSCAASGFTFSDYGMVWVRQAPGKGLEWVASISSGSSNIYYADTVKGRFTISRDNAKNTLYLQMNSLRAEDTAVYYCARNPYWGQGTLVTVSS VL: DIQMTQSPSSLSASVGDRVTITCKASQNVGTNVAWYQQKPGKAPKGLIYSASHRYSGVPDRFSGSGSGTDFTLTISSLQPEDFATYYCQQYNSYPLTFGGGTKVEIKR |
|  |  |  |  | 2.78 µg/mL |  |  |  | 2.28 µg/mL | 2.56 µg/mL | 2.63 µg/mL |  | 0.19 nM | 0.074 nM | 5.1e-05 s⁻¹ | 690000 M⁻¹ s⁻¹ | 8E1 (antibody, V domains shown) VH: EVKLVESGGGLVQPGGSRKLSCAASGFTFSDYGMVWVRQAPGKGLEWVASISSGSSNIYYADTVKGRFTISRDDPNNTLFLQMRSLRSEDTAMYYCARNPYWGQGTTLTVSS VL: DIVMTQSQKFMSTSVGDRVSVTCKASQNVGTNVAWYQQKPGQSPKGLIYSASHRYSGVPDRFAGSGSGTDFTLTISNVQSEDLAEYFCQQYNSYPLTFGGGTKLELKR |
